Tests used:
[1] = target: T1, αKlotho^ecto/ΔRBA (soluble αKlotho ectodomain lacking L544 to T565 of the KL2 β1α1 loop) (human, UniProt Q9UEF7 34-981); test: size-exclusion chromatography of FGF23/αKlotho^ecto/ΔRBA mixture
T1 construct: the mature protein is E34 to S959; Expressed and purified like the wild type (pEF1α/myc-His A); also called α-Klotho^ecto/deltaRBA; αKlotho^ecto/ΔRBA mutant
T1 sequence: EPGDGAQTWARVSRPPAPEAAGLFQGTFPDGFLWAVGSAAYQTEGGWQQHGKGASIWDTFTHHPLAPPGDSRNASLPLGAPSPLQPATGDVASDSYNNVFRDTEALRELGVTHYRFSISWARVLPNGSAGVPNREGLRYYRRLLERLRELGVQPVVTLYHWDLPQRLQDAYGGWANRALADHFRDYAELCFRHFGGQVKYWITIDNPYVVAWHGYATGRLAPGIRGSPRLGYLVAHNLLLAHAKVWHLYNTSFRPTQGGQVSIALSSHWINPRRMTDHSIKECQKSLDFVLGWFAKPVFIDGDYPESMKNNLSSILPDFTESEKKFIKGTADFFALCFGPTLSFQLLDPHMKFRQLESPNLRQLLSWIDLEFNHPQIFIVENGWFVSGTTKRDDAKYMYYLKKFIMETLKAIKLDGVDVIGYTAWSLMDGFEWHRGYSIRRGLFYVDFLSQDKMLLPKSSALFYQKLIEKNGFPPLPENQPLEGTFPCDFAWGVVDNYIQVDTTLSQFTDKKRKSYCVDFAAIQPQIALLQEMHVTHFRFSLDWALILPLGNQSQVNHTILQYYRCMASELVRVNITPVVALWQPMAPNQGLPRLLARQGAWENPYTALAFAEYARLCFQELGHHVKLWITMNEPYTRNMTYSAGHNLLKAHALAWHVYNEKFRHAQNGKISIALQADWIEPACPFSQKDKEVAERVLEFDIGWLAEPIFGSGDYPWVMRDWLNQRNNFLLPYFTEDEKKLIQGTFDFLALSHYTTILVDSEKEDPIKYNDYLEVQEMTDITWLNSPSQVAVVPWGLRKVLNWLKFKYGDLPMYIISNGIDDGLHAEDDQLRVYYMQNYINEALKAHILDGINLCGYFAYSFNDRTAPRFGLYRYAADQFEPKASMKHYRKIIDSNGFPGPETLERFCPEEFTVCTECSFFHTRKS

[2] = target: T2, FGFR1c^ecto (human FGFR1c ligand-binding domain, D2, D3 and D2-D3 linker) (human, UniProt P11362 142-365); test: crystal structure of the ternary complex, 3.0 Å
T2 sequence: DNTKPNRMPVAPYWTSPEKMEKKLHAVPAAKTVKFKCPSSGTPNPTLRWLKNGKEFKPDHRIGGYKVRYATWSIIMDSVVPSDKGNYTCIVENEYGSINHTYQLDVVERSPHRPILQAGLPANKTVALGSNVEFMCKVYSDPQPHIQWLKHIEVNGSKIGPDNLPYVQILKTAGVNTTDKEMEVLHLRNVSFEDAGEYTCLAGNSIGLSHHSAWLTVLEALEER
Description: To prepare the FGF23-FGFR1c^ecto-αKlotho^ecto complex, its purified components were mixed at a molar ratio of 1.2:1.2:1 and spin-concentrated using an Amicon Ultra-15 concentrator (#UFC901024, Merck Millipore, Germany). The concentrated sample was applied to a Superdex 200 column (GE Healthcare, USA) and eluted isocratically in 25 mM HEPES pH 7.5 buffer containing 500 mM NaCl and 100 mM (NH₄)₂SO₄. Column peak fractions were analyzed by SDS-PAGE and peak fractions containing the ternary complex were concentrated to 7 mg/ml. Concentrated ternary complex was screened for crystallization by sitting drop vapor diffusion. A range of commercially available crystallization screen kits was used: Protein Complex Suite (#130715), Classics Suite (#130701), Classics II Suite (#130723), and Classics Lite Suite (#130702) from Qiagen, Germany; Crystal Screen (#HR2-110), Crystal Screen 2 (#HR2-112), Crystal Screen Lite (#HR2-128), PEG/Ion Screen (#HR2-126), and PEGRx1 (#HR2-082) from Hampton Research, USA; and PEG Grid Screening Kit (#36436) and Crystallization Cryo Kit (#75403) from Sigma-Aldrich, USA. Drops consisting of 100 nl reservoir solution and 100 nl protein complex solution were equilibrated against 100 μl well volume set up in 96-well plates (Fisher Scientific, USA) using a Mosquito crystallization robot (TTP Labtech, U.K.). […]

B1: FGF23^WT (human FGF23 Y25 to S205 with R176Q/R179Q, protease-resistant minimal protein) (ligand)
chain: YPNASPLLGSSWGGLIHLYTATARNSYHLQIHKNGHVDGAPHQTIYSALMIRSEDAGFVVITGVMSRRYLCMDFRGNIFGSHYFDPENCRFQHQTLENGYDVYHSPQYHFLVSLGRAKRAFLPGMNPPPYSQFLSRRNEIPLIHFNTPIPRQHTQSAEDDSERDPLNVLKPRARMTPAPAS
notes: also called wild-type FGF23; minimal FGF23
**Q.** Does B1 bind [1]?
**A.** Result: binds

**Q.** Does B1 bind [2]?
**A.** Result: binds

Reference: patent publication US20210054355A1 (NEW YORK UNIVERSITY, published 2021)
